Common to all, as to format: physicochemical
A short description of series [1]: Retention of peptides in V-bottomed polypropylene wells. As to conditions: V-bottom wells, 500V scan. The procedure: (§1) The retention of peptides 2DOS-1 to 2DOS-16 (see above) on polypropylene wells of different geometries was investigated:
(§2) 10 mM tris-HCl (pH 8.0) in 50% (v/v) aqueous acetonitrile was used as the solvent for the peptides and for TAMRA.
(§3) 1 μl aliquots of 10 μM peptides 2DOS-1 to 2DOS-16 and 10 μM TAMRA were pipetted into the wells of a Costar V-bottomed polypropylene microtitre plate and a Greiner flat-bottomed polypropylene microtitre plate according to the following scheme as shown in FIG. 22:
(§4) The peptide samples were allowed to evaporate to dryness in the dark.
(§5) The peptide samples in the top two rows of the microtitre plates were then incubated for 15′ minutes at room temperature in 250 μl of 1 M NaCl in 10 mM tris-HCl (pH 8.0).
(§6) After incubation, the wash buffer was pipetted up and down eight times in the well before removing the supernatant.
(§7) The washed and untreated peptide samples were then resuspended in 50 μl of 10 mM tris-HCl (pH 8.0) in 50% (v/v) aqueous acetonitrile.
(§8) The microtitre plates were imaged at 200 μm resolution on a Typhoon Trio Plus variable mode imager (Amersham Biosciences) with the green (532 nm) laser and the 580 BP 30 filter at the PMT voltages indicated below and at normal sensitivity. The scan height was set at the platen and the sample was pressed during, scanning.
(§9) The fluorescence images were analysed using ImageQuant TL v2003.03 (Amersham Biosciences).

Series [2] is described as follows: Retention of peptides in flat-bottomed polypropylene wells. As to conditions: flat-bottom wells; 500V scan; unwashed. The procedure: as §1, §2, §3, §4, §5, §6, §7, §8, §9
Series [3] can be described thus: Retention of peptides on Costar polypropylene V-bottom wells. As to conditions: 400V scan. The procedure:
(§10) The retention of peptides 2DOS-1 to 2DOS-16 (see above) on polypropylene and polystyrene surfaces was compared:
(§11) 5 mM tris-HCl (pH 8.0) in 75% (v/v) aqueous acetonitrile was used as the solvent for the peptides and for TAMRA.
(§12) 20 μl aliquots of 5 μM peptides 2DOS-1 to 2DOS-16 and 5 μM TAMRA were pipetted into the wells of a Costar V-bottomed polypropylene microtitre plate, a Greiner V-bottomed polypropylene microtitre plate, and a Greiner V-bottomed polystyrene microtitre plate according to the scheme shown in FIG. 26:
as §4
(§13) The peptide samples in the top two rows of the microtitre plates were then incubated for 15 minutes at room temperature in 250 μl of 1 M NaCl in 10 mM tris-HCl (pH 8.0).
as §6, §7
(§14) The microtitre plates were imaged at 200 μm resolution on a Typhoon Trio Plus variable mode imager (Amersham Biosciences) with the green (532 nm) laser and the 580 BP 30 filter at the PMT voltages indicated below and at normal sensitivity. The scan height was set at +3 mm and the sample was pressed during scanning.
as §9

A short description of series [4]: Retention of peptides on Greiner polypropylene V-bottom wells. As to conditions: 400V scan. The procedure: as §10, §11, §12, §4, §13, §6, §7, §14, §9
Series [5] is described as follows: Retention of peptides on Greiner polystyrene V-bottom wells. As to conditions: 400V scan. The procedure:
as §10, §11, §12, §4, §13, §6, §7, §14, §9

The nature of series [6]: Retention of peptides P1-1 to P1-5 on a polypropylene sheet after successive washes. As to conditions: for Average fluorescence, control array / Corrected signal, control array: unwashed control array. The procedure: Further experiments were undertaken to investigate the retention of peptides P1-1 to, P1-5 and P2-1 to P2-2, shown in Table 3, on a polypropylene surface.
The polypropylene sheet was wiped with 50% (v/v) aqueous acetonitrile prior to use.
8× replicate 20 nl volumes of 1 μM peptides P1-1 to P1-5 and P2-1 to P2-2 and TAMRA in dimethyl sulphoxide (DMSO) were dispensed at 1 mm spacing to a 3″×1″×1 mm polypropylene sheet using the Piezorray system (PerkinElmer LAS). 500 drops were pre-dispensed using the ‘side shoot’ option and the tuning was set to 72V for 30 μs.
The slide was imaged at 10 μm resolution on a Typhoon Trio Plus variable mode imager (Amersham Biosciences) with the green (532 nm) laser and the 580 BP 30 filter at a PMT voltage of 600 V and at normal sensitivity. The scan height was set at the platen and the samples were pressed during scanning. The fluorescence image was analysed using ImageQuant TL v2003.03 (Amersham Biosciences).
The lower half of the slide (containing the test array) was then washed in 100 ml of 1 M NaCl containing 10 mM tris-HCl (pH 8.0) for one minute and were re-scanned as described above.
The same half of the slide was then washed for a second time in 100 ml of 1 M NaCl containing 10 mM tris-HCl (pH 8.0) for 30 minutes and re-scanned as described above.
The same half of the slide was then washed for a third time in 100 ml of water for 30 minutes and re-scanned as described above.

Where [7] appears, read: washed 15 minutes in 1 M NaCl in 10 mM tris-HCl (pH 8.0).
[8] abbreviates: after first wash scan, slide background subtracted.
Where [9] appears, read: after first wash: 1 M NaCl/10 mM tris-HCl (pH 8.0), one minute.
[10] abbreviates: after first wash: 1 M NaCl/10 mM tris-HCl (pH 8.0), one minute, background subtracted.
Where [11] appears, read: after second wash scan, background subtracted.
Where [12] appears, read: after second wash: 1 M NaCl/10 mM tris-HCl (pH 8.0), 30 minutes.
Setting [13] is: after second wash: 1 M NaCl/10 mM tris-HCl (pH 8.0), 30 minutes, background subtracted.
[14] abbreviates: after third wash scan, background subtracted.
[15] abbreviates: after third wash: water, 30 minutes.
The mark [16] stands for this setting: after third wash: water, 30 minutes, background subtracted.

Values joined by “and” are separate entries in the source; they are usually repeats but may differ in a detail not shown here. Equal entries are not always repeated. Ends that are not written are not given here.

For the substance TAMRA [reference compound], the Percent retention is 5% and 4% and 6% in series [1]; 3% in series [3]; 1% in series [4]; 1% in series [5]. The Untreated fluorescence is 12,610,993 and 15,392,751 and 17,471,866 in series [1] (unwashed); 18,396,859 and 20,662,891 and 20,649,165 in series [2]; 11,786,211 in series [3] (unwashed); 6,199,206 in series [4] (unwashed); 1,051,154 in series [5] (unwashed). Also, the Retained fluorescence in series [1] (setting [7]) is 640,684 and 686,863 and 998,320; in series [3] (setting [7]), 386,629; in series [4] (setting [7]), 64,916; in series [5] (setting [7]), 10,004.

With “TAMRA-F-G-F-G-F-G-F-G-F-G-F-S-F-A-F-D-F-G-F ({TAMRA}-FGFGFGFGFGFSFAFDFGF) [Peptide P1-5]”, the “Average fluorescence, control array” value is 199,347,483 in series [6] (after first wash scan), 190,847,825 in series [6] (after second wash scan) and 183,492,293 in series [6] (after third wash scan). For the same substance, the “Corrected signal, control array” value in series [6] (setting [8]) is listed as 52,655,810; in series [6] (setting [11]) it was 53,567,975; in series [6] (setting [14]), 49,585,053. The “Average fluorescence, test array” value in series [6] (setting [9]) was 201,991,732; in series [6] (setting [12]), 167,865,473; in series [6] (setting [15]), 147,812,043. Also, the “Corrected signal, test array” value is on record as 47,493,774 in series [6] (setting [10]), 35,418,169 in series [6] (setting [13]) and 23,514,817 in series [6] (setting [16]). In addition, the “Retention on polypropylene surface (in words)” value in series [6] (compared among P1-1 to P1-5, chain length of 19 amino acids) is “highest retention”.

On to “TAMRA-F-G-F-G-F-G-F-G-F-S-F-A-F-D-F-G-F ({TAMRA}-FGFGFGFGFSFAFDFGF) [Peptide P1-4]”, for which the “Average fluorescence, control array” value in series [6] (after first wash scan) was 187,287,630; in series [6] (after second wash scan), 179,942,418; in series [6] (after third wash scan) it was 176,102,487. Further, the entries for the “Corrected signal, control array” value in series [6] (setting [8]), in series [6] (setting [11]) and in series [6] (setting [14]) were 40,595,958, 42,662,569 and 42,195,247, respectively. The “Average fluorescence, test array” value was 189,823,310 in series [6] (setting [9]), 159,100,527 in series [6] (setting [12]) and 135,681,173 in series [6] (setting [15]). Moreover, the entries for the “Corrected signal, test array” value in series [6] (setting [10]), in series [6] (setting [13]) and in series [6] (setting [16]) were 35,325,352, 26,653,223 and 11,383,947, respectively.

With “TAMRA-F-G-F-G-F-G-F-S-F-A-F-D-F-G-F ({TAMRA}-FGFGFGFSFAFDFGF) [Peptide P1-3]”, the “Average fluorescence, control array” value in series [6] (after first wash scan) is 192,743,469; in series [6] (after second wash scan), 187,310,655; in series [6] (after third wash scan), 184,219,147. Further, the “Corrected signal, control array” value in series [6] (setting [8]) was 46,051,796; in series [6] (setting [11]), 50,030,806; in series [6] (setting [14]), 50,311,907. In addition, the “Average fluorescence, test array” value in series [6] (setting [9]) was 171,197,973; in series [6] (setting [12]), 148,725,456; in series [6] (setting [15]), 125,717,642. In addition, the “Corrected signal, test array” value in series [6] (setting [10]) was 16,700,014; in series [6] (setting [13]) it was 16,278,152; in series [6] (setting [16]), 1,420,417.

As for “TAMRA-F-G-F-G-F-S-F-A-F-D-F-G-F ({TAMRA}-FGFGFSFAFDFGF) [Peptide P1-2]”, the “Average fluorescence, control array” value was 200,280,129 in series [6] (after first wash scan), 196,080,891 in series [6] (after second wash scan) and 185,727,868 in series [6] (after third wash scan). Further, the figures for the “Corrected signal, control array” value in series [6] (setting [8]), in series [6] (setting [11]) and in series [6] (setting [14]) were 53,588,457, 58,801,042 and 51,820,628, respectively. Besides, the “Average fluorescence, test array” value is recorded as 170,078,218 in series [6] (setting [9]), 135,695,639 in series [6] (setting [12]) and 126,193,156 in series [6] (setting [15]). In addition, the “Corrected signal, test array” value is given as 15,580,260 in series [6] (setting [10]), 3,248,336 in series [6] (setting [13]) and 1,895,931 in series [6] (setting [16]).

Take “TAMRA-F-G-F-S-F-A-F-D-F-G-F ({TAMRA}-FGFSFAFDFGF) [Peptide P1-1]”: the “Average fluorescence, control array” value is given as 244,263,013 in series [6] (after first wash scan), 225,863,933 in series [6] (after second wash scan) and 218,342,010 in series [6] (after third wash scan). Further, the “Corrected signal, control array” value is recorded as 97,571,341 in series [6] (setting [8]), 88,584,083 in series [6] (setting [11]) and 84,434,769 in series [6] (setting [14]). For the same substance, the “Average fluorescence, test array” value is listed as 157,624,537 in series [6] (setting [9]), 127,216,792 in series [6] (setting [12]) and 124,941,941 in series [6] (setting [15]). In addition, the “Corrected signal, test array” value in series [6] (setting [10]) is on record as 3,126,578; in series [6] (setting [13]), −5,230,512; in series [6] (setting [16]) it was 644,716.

Source of the values: US20090192048A1, “METHOD OF PRODUCING A […] AGENT FOR BINDING A LIGAND” (priority 2005, published 2009).
